Reference: paper PMC8233210, “The archaeal triphosphate tunnel metalloenzyme SaTTM defines structural determinants for the diverse activities in the CYTH protein family” (The Journal of Biological Chemistry, 2021)

B1: Sulfolobus acidocaldarius triphosphate tunnel metalloenzyme (SaTTM) (enzyme, Sulfolobus acidocaldarius DSM 639, UniProt Q4JAT2 1-185, looked up)
chain: MSYIEREIKLRVISPSLEEIEERIRNNYTFINEEHQIDIYYNNPIRDFRKSDEALRLRNTNGKVILTYKGPKQSKETKTREEIEVEVSDLHKMDLILRKLGFIRSFQVEKIRKNYKYADFIISLDSIKELGEFIEIEGINKTEKELISFVDEFVKKHQIQYEKTIKSYLELLVEHAKKTNNSNTH
notes: SaTTM (Saci_0718), CYTH ortholog of Sulfolobus acidocaldarius DSM 639; ORF amplified from the genome and cloned NcoI/BamHI into pSA4 to give pSVA1028; No step that removes the His6 tag is described; The NcoI cloning site may have changed the residue after the first methionine; also called Saci_0718; S. acidocaldarius CYTH enzyme; source: E. coli BL21-Gold (DE3), purified (heat step 70 °C, Ni-NTA, …)

Assays:
SaTTM (Saci_0718) = target: T1, SaTTM (Saci_0718) (Sulfolobus acidocaldarius, UniProt Q4JAT2); test: X-ray crystal structure of the complex; assay type: binding; settings: 10 mM CaCl2, 5 mM PPi, pH 4.6, 4 °C; also 10 mM MgCl2 crystal without bound Mg2+; closed tunnel, active site
T1 construct: full ORF, C-terminal His6 (pSVA1028), expressed in E. coli BL21-Gold (DE3), heat step, IMAC, SEC; homodimer of 56 kDa

[1] = target: the molecule itself; test: SEC; analytical Superdex 200 10/300 GL, SEC buffer (200 mM NaCl, 50 mM Tris, pH 9.0), compared with standards
[2] = substrate: O=P(O)(O)OP(=O)(O)OP(=O)(O)O; test: malachite green phosphate release, Michaelis-Menten fit; assay type: biochemical, Sulfolobus acidocaldarius; settings: 2 mM MgCl2, 50 mM Tris, 200 mM NaCl, pH 8.6, 75 °C, 5 nM enzyme

| Molecule | X-ray crystal structure of the complex (SaTTM (Saci_0718)) | stoichiometry N [1] | Km [2] | kcat [2] |
| --- | --- | --- | --- | --- |
| O=P(O)(O)OP(=O)(O)O [PPi, pyrophosphate] | we determined crystal structures of SaTTM in complex with pyrophosphate |  |  |  |
| B1 |  | 2 | 41.0 (95% CI 29.8 to 55.4) μM | 5934 s⁻¹ |
